The results in this text go back to paper doi:10.1101/865998 (bioRxiv, 2019).

Data set [1] has as its target TM24 peptide expressed as a EYFP fusion in COS cells. Put plainly: FRAP.
The data set “native gel or EMSA” deals with the molecule itself. Put plainly: native gel or EMSA.
Data set [2] concerns the molecule itself. Kind of data set: SDS-PAGE without cross-linker.
The data set “FRAP” concerns the molecule itself. Put plainly: FRAP.

Values joined by “and” are separate entries in the source; they are usually repeats but may differ in a detail not shown here. Identical values can stand only once. No end group written: not given here.

The stoichiometry N is a count of units in the complex or per binding partner. For the molecule “TM24 peptide expressed as a EYFP fusion in COS cells (domain or fragment)”, the stoichiometry N in data set [1] was 7.

B1: CX3CL1-EYFP fusion protein (L929 cells stably expressing CX3CL1, L_(CX3CL1)) (natural protein)
chain: QHHGVTKCNITCSKMTSKIPVALLIHYQQNQASCGKRAIILETRQHRLFCADPKEQWVKDAMQHLDRQAAALTRNGGTFEKQIGEVKPRTTPAAGGMDESVVLEPEATGESSSLEPTPSSQEAQRALGTSPELPTGVTGSSGTRLPPTPKAQDGGPVGTELFRVPPVSTAATWQSSAPHQPGPSLWAEAKTSEAPSTQDPSTQASTASSPAPEENAPSEGQRVWGQGQSPRPENSLEREEMGPVPAHTDAFQDWGPGSMAHVSVVPVSSEGTPSREPVASGSWTPKAEEPIHATMDPQRLGVLITPVPDAQAATRRQAVGLLAFLGLLFCLGVAMFTYQSLQGCPRKMAGEMAEGLRYIPRSCGSNSYVLVPV
As for B1, in the data set “native gel or EMSA”, the “stoichiometry N” value is ~3 and 5 and ≥ 3.

B2: TM24 peptide (20 residues of the CX3CL1 TM domain with 2 lysines added at each end) (peptide)
peptide: KKVGLLAFLGLLFCLGVAMFTYKK
As for B2, the “stoichiometry N” value in data set [2] was 2.

B3: TM24-FITC (peptide)
peptide: KKVGLLAFLGLLFCLGVAMFTYKK
modifications: also: FITC conjugated, position not given here
On to B3, for which the binding result in “FRAP” is on record as “binds”.
